B1: E104.v1 6DS (LC.F116C.Q124C.HC.F126C.A141C) (antibody, V domains shown)
VH: EVQLVESGPGCVKPSETLSLTCTVSRFSLIGYAITWIRQPPGKGLEWIGGISSAATTFYSSWAKSRVTISVDTSKNQFSLKLSSVTAADTAVYYCARDPRGYGAALDRLDLWGQGTCVTVSS
VL: DIQMTQSPSSLSASVGDRVTITCQSIKSVYNNRLGWYQQKCGKAPKLLIYETSILTSGVPSRFSGSGSGTDFTLTISSLQCEDFATYYCAGGFDRSGDTTFGQGTKVEIKR
B2: E104.v1 4DS (antibody, V domains shown)
VH: EVQLVESGPGCVKPSETLSLTCTVSRFSLIGYAITWIRQPPGKGLEWIGGISSAATTFYSSWAKSRVTISVDTSKNQFSLKLSSVTAADTAVYYCARDPRGYGAALDRLDLWGQGTCVTVSS
VL: DIQMTQSPSSLSASVGDRVTITCQSIKSVYNNRLGWYQQKCGKAPKLLIYETSILTSGVPSRFSGSGSGTDFTLTISSLQCEDFATYYCAGGFDRSGDTTFGQGTKVEIKR

Molecular target: human beta-tryptase (human, UniProt Q15661)
Experiment: BLI steady state

Chain of human beta-tryptase (Q15661 31-275): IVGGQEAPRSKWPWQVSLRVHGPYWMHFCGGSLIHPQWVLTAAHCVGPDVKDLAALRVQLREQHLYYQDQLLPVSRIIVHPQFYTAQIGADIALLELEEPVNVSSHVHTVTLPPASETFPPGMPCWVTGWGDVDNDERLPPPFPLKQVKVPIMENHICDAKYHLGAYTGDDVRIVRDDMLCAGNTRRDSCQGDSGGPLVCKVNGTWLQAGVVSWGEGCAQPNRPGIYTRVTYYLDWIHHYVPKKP

Row | Binder | Kd [nM]
1 | B1 | 3.16
2 | B2 | 1.63
